Results on 4 compounds are retold here after article PMC9740503, “[^68Ga]Ga-DATA^5m-LM4, a PET Radiotracer in the Diagnosis of SST2R-Positive Tumors: Preclinical and First Clinical Results” (International Journal of Molecular Sciences, 2022).

Where two headings read alike, the source gives them in different places. Positions of bridges follow the written chain, without caps; N, C: chain ends. Non-standard residues stand in square brackets, D forms with d. Residues, ends and D or L forms follow the SMILES beside them. *: point of attachment. DOTA = O=C(O)CN1CCN(CC(=O)O)CCN(CC(=O)*)CCN(CC(=O)O)CC1; X1 = CN(CC(=O)O)C1(CCCCC(=O)*)CN(CC(=O)O)CCN(CC(=O)O)C1; dPhe(4-NHCONH2) = NC(=O)Nc1ccc(C[C@@H](N)C(=O)O)cc1; Phe(4-Cl) = N[C@@H](Cc1ccc(Cl)cc1)C(=O)O; 4Pal = N[C@@H](Cc1ccncc1)C(=O)O

The target in one series is T1, human SST2R (Homo sapiens, UniProt P30874).
T1 construct: expressed in transfected cells
As to the kind of experiment: Competition binding against [125I-Tyr25]LTT-SS28 in HEK293-SST2R cell membranes. The note with it: HEK293-SST2R cell membrane homogenates; 1 h at 22 °C; 50 mM HEPES pH 7.4 binding buffer; mean ± sd, n = 3 independent experiments in triplicate; read-out: IC50, displacement of [125I-Tyr25]LTT-SS28 from SST2R binding sites. On the procedure: The binding affinities of DATA^5m-LM4 and [^natGa]Ga-DATA^5m-LM4 for the human SST2R were determined via competition binding assays against [^125I-Tyr^25]LTT-SS28 in freshly harvested HEK293-SST2R cell membranes. As depicted in Figure 2, DATA^5m-LM4 as well as its [^natGa]Ga-tagged version displaced [^125I-Tyr^25]LTT-SS28 from SST2R-binding sites in the membrane homogenates in a monophasic and dose-dependent manner.
Competition binding assays for DATA^5m-LM4 and [^natGa]Ga-DATA^5m-LM4 were performed in freshly harvested HEK293-SST2R cell membranes against [^125I-Tyr^25]LTT-SS28 [30, 33]. […] Filters were collected and their activity measured in a γ-counter (automated multi-sample well-type instrument with a NaI(Tl) 3″ crystal, Canberra Packard Cobra^TM Quantum U5003/1, Auto-Gamma® counting system). The half-maximal inhibitory concentration (IC50) values were calculated by nonlinear regression for a one-site model applying the PRISM^TM 6.0 GraphPad software (San Diego, CA, USA) and represent mean IC50 ± sd values from at least three independent experiments were performed in triplicate.

Series [1] can be described thus: Biodistribution in SCID mice bearing twin HEK293-SST2R and wtHEK293 tumors. The format is in vivo. The note with it: male, mouse, iv, 10 pmol, total radioactivity. On the procedure:
Inocula containing a suspension of freshly-harvested HEK293-SST2R cells (150 μL, 1.2 × 10^7cells in normal saline) and wtHEK293 cells (150 μL, 0.6 × 10^7 cells in normal saline) were subcutaneously (sc) injected in the right and left flanks of male SCID mice (21.5–25.0 g body weight, six weeks of age on arrival day; NCSR “Demokritos” Animal House, Athens, Greece). Mice were kept under aseptic conditions for about 2 weeks until well-palpable tumors (300–600 mg) were grown at the inoculation sites. […] Samples of blood and tissues of interest were collected along with implanted tumors, weighted and counted in the gamma counter. Biodistribution results were calculated as percent of the injected activity per gram tissue (%IA/g) with the aid of appropriate standards of the administered dose and the Microsoft Excel program. Results are presented as mean %IA/g values ± sd, n = 4 per time point, as determined by the PRISM^TM 6.0 GraphPad software (San Diego, CA, USA). […]

The test system of another series is HEK293-SST2R cells. Description: Radioligand uptake/internalization in HEK293-SST2R cells. The format is cell-based, human. The note with it: 1 h at 37 °C, 0.5 pmol total peptide, specific, % of total added activity, mean ± sd, 3 independent experiments in triplicate. On the procedure:
This distinct cell distribution pattern between [^67Ga]Ga-DATA^5m-LM4 and [^67Ga]Ga-DOTA-TOC is consistent with an SST2R antagonist and agonist behavior, respectively. […] Cells were seeded in poly-lysine coated six-well plates (1 × 10^6/well) and grew to confluent monolayers overnight. At the day of the experiment, plates were placed on ice and rinsed twice with chilled internalization medium (DMEM Glutamax-I supplemented by 1% (v/v) FBS). […] In the upper three wells internalization medium was added (150 μL, total) and in the lower three a solution of TATE to a final concentration of 1 μM (150 μL, non-specific). After 60 min incubation at 37 °C, the medium was removed and cells were washed with ice-cold 0.5% BSA-PBS. Cells were incubated (2 × 5 min) at ambient temperature in acid wash buffer (50 mM glycine in 0.1 M NaCl, pH 2.8) and supernatants were collected (membrane-bound fraction). After rinsing with 0.5% BSA-PBS, the cells were lysed by treatment with 1 N NaOH; the lysates were collected (internalized fraction). Samples were measured in the γ-counter and cell-associated/internalized radioactivity vs. total added activity per well was calculated. Specific values were obtained by subtracting values in the presence of excess TATE (lower well triplicates) from those without the addition of blocker (upper well triplicates). […]

A further series concerns SST2R. The settings on record: against the same radioligand; read-out: IC50, SST2R autoradiography; cited from earlier work. From the text: On the other hand, by changing the metal to Lu the IC50 determined for [^natL ...

T1 sequence (P30874 whole entry): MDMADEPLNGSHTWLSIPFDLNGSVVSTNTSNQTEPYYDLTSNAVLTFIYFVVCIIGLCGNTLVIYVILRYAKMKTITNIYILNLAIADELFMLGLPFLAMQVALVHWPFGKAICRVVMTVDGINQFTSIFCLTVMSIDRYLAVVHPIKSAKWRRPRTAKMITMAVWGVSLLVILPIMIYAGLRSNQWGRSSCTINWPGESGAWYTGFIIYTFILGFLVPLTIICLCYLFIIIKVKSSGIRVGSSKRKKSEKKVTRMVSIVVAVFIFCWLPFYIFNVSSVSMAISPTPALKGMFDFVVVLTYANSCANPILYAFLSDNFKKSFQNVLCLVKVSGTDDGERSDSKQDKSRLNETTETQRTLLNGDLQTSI

As to `C[C@@H](O)[C@@H]1NC(=O)[C@H](CCCCN)NC(=O)[C@@H](Cc2ccc(NC(N)=O)cc2)NC(=O)[C@H](Cc2ccncc2)NC(=O)[C@H](NC(=O)[C@H](Cc2ccc(Cl)cc2)NC(=O)CCCCC2(N(C)CC(=O)O)CN(CC(=O)O)CCN(CC(=O)O)C2)CSSC[C@@H](C(=O)N[C@H](Cc2ccc(O)cc2)C(N)=O)NC1=O` [DATA^5m-LM4] (X1-[Phe(4-Cl)][dC][4Pal][dPhe(4-NHCONH2)]KTC[dY]-NH2; disulfide 2-7), the concentration for half-maximal inhibition (IC50) on human SST2R amounted to 1.24 ± 0.2 nM.

Regarding `C[C@@H](O)[C@@H]1NC(=O)[C@H](CCCCN)NC(=O)[C@@H](Cc2ccc(NC(N)=O)cc2)NC(=O)[C@H](Cc2ccc(O)cc2)NC(=O)[C@H](NC(=O)[C@H](Cc2ccc(Cl)cc2)NC(=O)CN2CCN(CC(=O)O)CCN(CC(=O)O)CCN(CC(=O)O)CC2)CSSC[C@@H](C(=O)N[C@H](Cc2ccc(O)cc2)C(N)=O)NC1=O` [[^67Ga]Ga-DOTA-LM3, metal not drawn] ({DOTA}-[Phe(4-Cl)][dC]Y[dPhe(4-NHCONH2)]KTC[dY]-NH2; disulfide 2-7), the tissue uptake at 1 h turned out to be 25.3 ± 6.23 %ID/g in series [1] (HEK293-SST2R tumor (Tu+), 1 h pi, iv 10 pmol total peptide, mean ± sd, n = 4, read-out: Tu+ (HEK293-SST2R tumor) uptake); 1.18 ± 0.03 %ID/g in series [1] (in vivo, Blood uptake); 1.39 ± 0.39 %ID/g in series [1] (in vivo, Femur uptake); 1.54 ± 0.78 %ID/g in series [1] (in vivo, Heart uptake); 1.26 ± 0.52 %ID/g in series [1] (in vivo, Intestines uptake); 36 ± 5.96 %ID/g in series [1] (in vivo, Kidneys uptake). Moreover, the tissue uptake at 1 h in series [1] (in vivo, Liver uptake) is 1.82 ± 0.63 %ID/g; in series [1] (in vivo, Lungs uptake) it was 3 ± 0.77 %ID/g; in series [1] (in vivo, Muscle uptake), 0.56 ± 0.22 %ID/g; in series [1] (in vivo, Pancreas uptake), 1.49 ± 0.71 %ID/g; in series [1] (in vivo, Spleen uptake), 1.73 ± 0.85 %ID/g; in series [1] (in vivo, Stomach uptake), 0.8 ± 0.17 %ID/g. Further, in series [1] (wtHEK293 tumor (Tu-), 1 h pi, iv 10 pmol total peptide, mean ± sd, n = 4, read-out: Tu- (wtHEK293 tumor) uptake), the tissue uptake at 1 h turned out to be 1.45 ± 0.27 %ID/g. Further, the tissue uptake at 4 h turned out to be 16.8 ± 1.22 %ID/g in series [1] (HEK293-SST2R tumor (Tu+), 4 h pi, iv 10 pmol total peptide, mean ± sd, n = 4, read-out: Tu+ (HEK293-SST2R tumor) uptake); 1.73 ± 0.47 %ID/g in series [1] (in vivo, Blood uptake); 0.67 ± 0.14 %ID/g in series [1] (in vivo, Femur uptake); 0.66 ± 0.14 %ID/g in series [1] (in vivo, Heart uptake); 1.41 ± 0.37 %ID/g in series [1] (in vivo, Intestines uptake); 37.6 ± 3.44 %ID/g in series [1] (in vivo, Kidneys uptake). Also, the tissue uptake at 4 h turned out to be 1.43 ± 0.19 %ID/g in series [1] (in vivo, Liver uptake); 1.21 ± 0.24 %ID/g in series [1] (in vivo, Lungs uptake); 0.25 ± 0.06 %ID/g in series [1] (in vivo, Muscle uptake); 1.24 ± 0.44 %ID/g in series [1] (in vivo, Pancreas uptake); 1.06 ± 0.25 %ID/g in series [1] (in vivo, Spleen uptake); 0.5 ± 0.08 %ID/g in series [1] (in vivo, Stomach uptake). In series [1] (wtHEK293 tumor (Tu-), 4 h pi, iv 10 pmol total peptide, mean ± sd, n = 4, read-out: Tu- (wtHEK293 tumor) uptake), the tissue uptake at 4 h is 1.13 ± 0.31 %ID/g. Besides, in the series with HEK293-SST2R cells, the “total cell uptake (membrane bound + internalized)” value is listed as 2.51 ± 0.36%.

Regarding “DOTA-DPhe-c[DCys-Tyr-DAph(Cbm)-Lys-Thr-Cys]-DTyr-NH2 (disulfide) [DOTA-LM3, DOTA-derivatized SST2R antagonist LM3]”, in the series on SST2R, the half-inhibitory concentration (IC50) is 1.4 ± 0.5 nM.

As for “[^natGa]Ga-DATA^5m-LM4: DATA5m-LM4 tagged with natural gallium (DATA5m-[Phe(4-Cl)][dC][4Pal][dPhe(4-NHCONH2)]KTC[dY]-NH2; disulfide 2-7; also: complexed with natural gallium)”, the 50% inhibitory concentration (IC50) with human SST2R is 1.61 ± 0.32 nM.
